Experimental findings from US20160235871A1, “Spect Radionuclide-labeled Trimeric Cycle RGD Peptide, Preparation Method Thereof and Imaging Method Thereof” (Bailing Cloud Biomedical Technologies Innovation, priority 2015, published 2016) are described below.

Structures are written as SMILES. Like-named read-outs stand apart in the source and are kept apart here.

Data set [1] in a line: Biodistribution in U87MG glioma nude mice. In kind it is in vivo. As to conditions: female, athymic nu/nu nude, mouse, in vivo, iv, 3 uCi, total radioactivity. The procedure: (§1) U87MG cells are purchased from US ATCC (Manassas, Va.). Cell culture conditions: […] […] 7 random U87MG glioma nude mice (20-25 g) are selected. […] After 60 minutes, a great amount of sodium pentobarbital is injected for executing the mice. Blood samples are collected from the mouse hearts. Tumor, normal organs (brain, eyes, heart, spleen, lung, liver, kidney, muscle and intestine) and tumor tissues are collected and washed by saline. Then they are dried by absorbent tissue, weighed by Perkin Elmer Wizard 1480 γ counter (Shelton, Conn.). The organ intake is measured by the percentage of the injection dose per gram of the tissue (% ID/g).

The subject of data set [2] is U87MG glioma. Kind of data set: Biodistribution in U87MG glioma nude mice. In kind it is in vivo. The procedure:
as §1

For data set [3] the following is noted: normal mice, research period over 2 hours. The procedure:
X. Normal mice (n=2) are selected for the metabolism research of the stability of ^99mmTc-4P-RGD3 in vivo, Each animal is injected with about 10 MBq of ^99mTc-4P-RGD3. The bladders are squeezed manually after 30 minutes and 120 minutes, respectively. The urine samples are collected and are mixed with 50% aqueous acetonitrile with the same volume. The mixture is centrifilged under 8,000 rpm. The supernatant is collected and is filtered by a 0.20 μm Millex-LG filter. The filtrate is analyzed by the HPLC. The fecal samples 120 minutes after the injection is collected, and is treated for homogenization by 20% of aqueous acetonitrile. The obtained mixture is rotated for about 5 minutes and then is centrifuged under 8,000 rpm. The supernatant is collected and is filtered by a 0.20 μm. Millex-LG filter. The filtrate is analyzed by the HPLC.

In data set [4] the test system is U87MG glioma. As to conditions: SPECT/CT.
Experimental: The preparation of ^99mTc-4P-RGD3 for the research of biodistribution includes incorporating ^99mTc-4P-RGD3 solution into physiological saline until the activity concentration is 10-30 mCi/mL. The preparation of ^99mTc-4P-RGD3 for tumor imaging includes incorporating ^99mTc-4P-RGD3 solution into physiological saline until the activity concentration is about 10 mCi/mL. During the experiments, each of the animal is injected with about 0.1 mL of the solution.
Biodistribution and tumor imaging are performed under the guidance of US National Institutes of Health animal experiments (1985, NIH 86-23, Laboratory Animal Care). U87MG cells are purchased from US ATCC (Manassas, Va.). Cell culture conditions: DMEM medium (non-essential amino acids sodium pyruvate) containing 10% of fetal bovine serum and 1% of penicillin and streptomycin. The cells are cultured under 37° C. with 5% of CO2. When the cells are grown to 90% confluence, they grow exponentially. The cells can be grown to a single layer, multiple layers or split layers. Female athymic nu/nu nude mice aged 4-5 weeks are used for the experiments, 5×10^6 of tumor cells are incorporated into 0.1 mL of physiological saline and are planted to shoulder subcutaneous of the mice under sterile conditions. About 4 weeks after planting, the tumor cells grow to 0.1-0.5 g for the use of biodistribution and imaging.

In the case of `N=C(N)NCCC[C@@H]1NC(=O)[C@H](CCCCNC(=O)CCOCCOCCOCCOCCNC(=O)CC[C@H](NC(=O)CCOCCOCCOCCOCCNC(=O)c2ccc(NN)nc2)C(=O)NCCOCCOCCOCCOCCC(=O)NCCCC[C@@H]2NC(=O)[C@@H](Cc3ccccc3)NC(=O)[C@H](CC(=O)O)NC(=O)CNC(=O)[C@H](CCCNC(=N)N)NC2=O)NC(=O)[C@@H](Cc2ccccc2)NC(=O)[C@H](CC(=O)O)NC(=O)CNC1=O` [^99mTc-3P-RGD2, metal not drawn], the tissue uptake at 1 h was found to be 0.47 ± 0.06 %ID/g in data set [1] (Organ intake, Blood); 0.17 ± 0.03 %ID/g in data set [1] (Organ intake, Brain); 1.4 ± 0.13 %ID/g in data set [1] (Organ intake, Eye); 1.67 ± 0.15 %ID/g in data set [1] (Organ intake, Heart); 12.3 ± 1.09 %ID/g in data set [1] (Organ intake, Kidney); 2.92 ± 0.77 %ID/g in data set [1] (Organ intake, Liver). For the same compound, the tissue uptake at 1 h in data set [1] (Organ intake, Lung) worked out at 4.25 ± 0.63 %ID/g; in data set [1] (Organ intake, Muscle), 1.12 ± 0.15 %ID/g; in data set [1] (Organ intake, Spleen) it was 3.11 ± 0.18 %ID/g; in data set [1] (Tumor intake), 7.24 ± 0.95 %ID/g. The Tumor intake in the data set on U87MG glioma [2] (mouse, in vivo) is given as 7.24±0.95 % ID/g.
For `N=C(N)NCCC[C@@H]1NC(=O)[C@H](CCCCNC(=O)[C@H]2O[C@@H](CNC(=O)COCCOCCn3cc(CNC(=O)CC[C@H](NC(=O)c4ccc(NN)nc4)C(=O)NCc4cn(CCOCCOCC(=O)NC[C@@H]5O[C@H](C(=O)NCCCC[C@@H]6NC(=O)[C@@H](Cc7ccccc7)NC(=O)[C@H](CC(=O)O)NC(=O)CNC(=O)[C@H](CCCNC(=N)N)NC6=O)[C@H](O)[C@H](O)[C@H]5O)nn4)nn3)[C@H](O)[C@@H](O)[C@H]2O)NC(=O)[C@@H](Cc2ccccc2)NC(=O)[C@H](CC(=O)O)NC(=O)CNC1=O` [^99mTc-Galacto-RGD2, metal not drawn], the tissue uptake at 1 h in data set [1] (Organ intake, Blood) is 0.56 ± 0.25 %ID/g; in data set [1] (Organ intake, Brain), 0.35 ± 0.28 %ID/g; in data set [1] (Organ intake, Eye), 0.81 ± 0.39 %ID/g; in data set [1] (Organ intake, Heart) it was 1.27 ± 0.61 %ID/g; in data set [1] (Organ intake, Kidney), 11.7 ± 4.06 %ID/g; in data set [1] (Organ intake, Liver) it was 3.07 ± 2.14 %ID/g. Besides, the tissue uptake at 1 h in data set [1] (Organ intake, Lung) came out at 2.93 ± 0.94 %ID/g; in data set [1] (Organ intake, Muscle), 0.88 ± 0.34 %ID/g; in data set [1] (Organ intake, Small Intestine), 5.45 ± 1.47 %ID/g; in data set [1] (Organ intake, Spleen), 1.99 ± 0.71 %ID/g; in data set [1] (Tumor intake) it was 6.86 ± 1.33 %ID/g. In the data set with U87MG glioma [2] (mouse, in vivo), this compound registered a Tumor intake of 6.86±1.33 % ID/g.
In the case of `N=C(N)NCCC[C@@H]1NC(=O)[C@H](CCCCNC(=O)CCOCCOCCOCCOCCNC(=O)CCC(CCC(=O)NCCOCCOCCOCCOCCC(=O)NCCCC[C@@H]2NC(=O)[C@@H](Cc3ccccc3)NC(=O)[C@H](CC(=O)O)NC(=O)CNC(=O)[C@H](CCCNC(=N)N)NC2=O)(CCC(=O)NCCOCCOCCOCCOCCC(=O)NCCCC[C@@H]2NC(=O)[C@@H](Cc3ccccc3)NC(=O)[C@H](CC(=O)O)NC(=O)CNC(=O)[C@H](CCCNC(=N)N)NC2=O)NC(=O)CCOCCOCCOCCOCCNC(=O)c2ccc(NN)nc2)NC(=O)[C@@H](Cc2ccccc2)NC(=O)[C@H](CC(=O)O)NC(=O)CNC1=O` (stereo partly drawn) [^99mTc-4P-RGD3, metal not drawn], the tissue uptake at 1 h turned out to be 0.53 ± 0.14 %ID/g in data set [1] (U87MG glioma nude mice, 60 minutes after tail vein injection, read-out: Organ intake, Blood); 0.14 ± 0.01 %ID/g in data set [1] (U87MG glioma nude mice, 60 minutes after tail vein injection, read-out: Organ intake, Brain); 0.46 ± 0.23 %ID/g in data set [1] (U87MG glioma nude mice, 60 minutes after tail vein injection, read-out: Organ intake, Eye); 0.56 ± 0.19 %ID/g in data set [1] (U87MG glioma nude mice, 60 minutes after tail vein injection, read-out: Organ intake, Heart); 9.1 ± 2.31 %ID/g in data set [1] (U87MG glioma nude mice, 60 minutes after tail vein injection, read-out: Organ intake, Kidney); 1.92 ± 0.62 %ID/g in data set [1] (U87MG glioma nude mice, 60 minutes after tail vein injection, read-out: Organ intake, Liver). Moreover, the tissue uptake at 1 h in data set [1] (U87MG glioma nude mice, 60 minutes after tail vein injection, read-out: Organ intake, Lung) amounted to 1.14 ± 0.41 %ID/g; in data set [1] (U87MG glioma nude mice, 60 minutes after tail vein injection, read-out: Organ intake, Muscle), 0.35 ± 0.17 %ID/g; in data set [1] (U87MG glioma nude mice, 60 minutes after tail vein injection, read-out: Organ intake, Small Intestine) it was 1.65 ± 0.37 %ID/g; in data set [1] (U87MG glioma nude mice, 60 minutes after tail vein injection, read-out: Organ intake, Spleen), 1.33 ± 0.52 %ID/g; in data set [1] (U87MG glioma nude mice, 60 minutes after tail vein injection, read-out: Tumor intake), 7.34 ± 1.66 %ID/g. In addition, in the data set on U87MG glioma [2] (60 minutes after injection, compared with ^99mTc-3P-RGD2 and ^99mTc-Galacto-RGD2), the “Intake background in organs of the whole body (intestine, liver, lung, muscle, spleen, kidney)” value is given as “significantly decreased”. The same compound came in with a Tumor intake in the data set with U87MG glioma [2] (U87MG glioma nude mice, 60 minutes after tail vein injection) of 7.34±1.66 % ID/g. In addition, the “Metabolites detected in the urine samples and the fecal samples (radio-HPLC)” value in data set [3] is “no metabolites”. Further, in the data set with U87MG glioma [4] (compared with ^99mTc-3P-RGD2 and ^99mTc-Galacto-RGD2), the “Radioactive accumulation in animal abdomen (especially in intestines)” value was “the lowest”. In addition, the “Tumor intake based on the SPECT quantization” value with U87MG glioma [4] (glioma nude mice, about 37 MBq injected) is “about 7.34 ID/g”.
